The results in this text go back to the supplement of paper PMC10567573.

B1: RPAIN (parent)
chain: ISEYEKSLQFDEKCLSIMLAEWEA
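Note: lentivirally expressed fusions sorted by FACS into six bins by GFP to DsRed ratio, PSI derived from sequencing read proportions per bin multiplied by bin number.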

The variants in this series derive from B1. Nature of the series: protein stability index of a GFP-peptide fusion (GPS, HEK-293T) (PSI 1-6); higher = more stable. The following applies: c terminus: a fixed tail appended.
For the variant ISEYEKSLQFDEKCLSIMLAPWEA [E21P], the protein stability index amounted to 2.73.
As for ISEYEKSLQFDEKCLSIMLANWEA [E21N], the protein stability index was 2.38.
The result for ISEYEKSLQFDEKCLSIMLAGWEA [E21G] reads 1.37.
Under ISEYEKSLQFDEKCLSIMLAEWEH [A24H] stands 2.49; under ISEYEKSLQFDEKCLSIMLAEWEK [A24K], 2.27; under ISEYEKSLQFDEKCLSIMLAEWEV [A24V], 1.91.
The result for ISEYEKSLQFDEKCLSIMLAEWEI [A24I] reads 1.96; that for ISEYEKSLQFDEKCLSIMLAEWET [A24T], 2.
Regarding ISEYEKSLQFDEKCLSIMLAEWED [A24D], the protein stability index worked out at 2.5.
For the variant ISEYEKSLQFDEKCLSIMLAEWEP [A24P], the protein stability index worked out at 2.49.
The result for ISEYEKSLQFDEKCLSIMLAEWEE [A24E] reads 1.87.
For ISEYEKSLQFDEKCLSIMLAEWEL [A24L], the protein stability index turned out to be 1.59.
The result for ISEYEKSLQFDEKCLSIMLAEWEM [A24M] reads 3.31.
The result for ISEYVKSLQFDEKCLSIMLAEWEA [E5V] reads 2.51; that for ISEYCKSLQFDEKCLSIMLAEWEA [E5C], 2.24; that for ISEYMKSLQFDEKCLSIMLAEWEA [E5M], 2.08.
As to ISEYKKSLQFDEKCLSIMLAEWEA [E5K], the protein stability index turned out to be 2.81.
The result for ISEHEKSLQFDEKCLSIMLAEWEA [Y4H] reads 2.06; that for ISETEKSLQFDEKCLSIMLAEWEA [Y4T], 2.5; that for ISEFEKSLQFDEKCLSIMLAEWEA [Y4F], 1.86.
For the variant ISESEKSLQFDEKCLSIMLAEWEA [Y4S], the protein stability index was 1.77.
For KSEYEKSLQFDEKCLSIMLAEWEA [I1K], the protein stability index is 2.56.
Take HSEYEKSLQFDEKCLSIMLAEWEA [I1H]: the protein stability index worked out at 2.15.
On to ASEYEKSLQFDEKCLSIMLAEWEA [I1A], for which the protein stability index was 2.29.
The result for FSEYEKSLQFDEKCLSIMLAEWEA [I1F] reads 1.34.
As for PSEYEKSLQFDEKCLSIMLAEWEA [I1P], the protein stability index came to 2.04.
Consider GSEYEKSLQFDEKCLSIMLAEWEA [I1G], for which the protein stability index came out at 1.86.
In the case of DSEYEKSLQFDEKCLSIMLAEWEA [I1D], the protein stability index turned out to be 2.6.
The result for RSEYEKSLQFDEKCLSIMLAEWEA [I1R] reads 2.41; that for YSEYEKSLQFDEKCLSIMLAEWEA [I1Y], 1.48; that for NSEYEKSLQFDEKCLSIMLAEWEA [I1N], 1.69.
As to SSEYEKSLQFDEKCLSIMLAEWEA [I1S], the protein stability index was determined as 1.8.
In the case of ISEYEKSLQFDEKCLSIMLAEIEA [W22I], the protein stability index is 1.68.
In the case of ISEYEKSLQFDEKCLSIMLAELEA [W22L], the protein stability index came to 2.15.
The result for ISEYEKSLQFDEKCLSIMLAEEEA [W22E] reads 4.21; that for ISEYEKSLQFDEKCLSIMLAEAEA [W22A], 2.18.
Consider ISEYEKSLQFDEKCLSIMLAEGEA [W22G], for which the protein stability index is 1.72.
On to ISEYEKSLQFDEKCLSIMLAEVEA [W22V], for which the protein stability index was found to be 1.52.
As to IDEYEKSLQFDEKCLSIMLAEWEA [S2D], the protein stability index is 1.97.
The result for IIEYEKSLQFDEKCLSIMLAEWEA [S2I] reads 1.79; that for IPEYEKSLQFDEKCLSIMLAEWEA [S2P], 2.04.
For the variant ICEYEKSLQFDEKCLSIMLAEWEA [S2C], the protein stability index is 1.41.
Regarding IQEYEKSLQFDEKCLSIMLAEWEA [S2Q], the protein stability index is 1.81.
Take INEYEKSLQFDEKCLSIMLAEWEA [S2N]: the protein stability index is 2.18.
Under IMEYEKSLQFDEKCLSIMLAEWEA [S2M] stands 2.15.
Consider IHEYEKSLQFDEKCLSIMLAEWEA [S2H], for which the protein stability index was determined as 1.5.
For the variant ISEYEKSLQGDEKCLSIMLAEWEA [F10G], the protein stability index stood at 2.81.
Take ISEYEKSLQIDEKCLSIMLAEWEA [F10I]: the protein stability index was determined as 2.93.
Take ISEYEKSLQRDEKCLSIMLAEWEA [F10R]: the protein stability index was 2.96.
Consider ISEYEKSLQTDEKCLSIMLAEWEA [F10T], for which the protein stability index turned out to be 3.01.
Turning to ISEYEKSLQWDEKCLSIMLAEWEA [F10W], the protein stability index is 2.88.
The result for ISEYEKSLQADEKCLSIMLAEWEA [F10A] reads 3.21.
In the case of ISEYEKSLQDDEKCLSIMLAEWEA [F10D], the protein stability index was 3.15.
ISEYEKSLQCDEKCLSIMLAEWEA [F10C]: the protein stability index came out at 2.99.
Under ISEYEKSLQYDEKCLSIMLAEWEA [F10Y] stands 1.97; under ISEYEKSLQFDHKCLSIMLAEWEA [E12H], 2.02.
With ISEYEKSLQFDIKCLSIMLAEWEA [E12I], the protein stability index worked out at 1.67.
ISEYEKSLQFDPKCLSIMLAEWEA [E12P]: the protein stability index was 1.76.
The result for ISEYEKSLQFDWKCLSIMLAEWEA [E12W] reads 1.85; that for ISEYEKSLQFDKKCLSIMLAEWEA [E12K], 1.75.
For the variant ISEYEKSLQFDMKCLSIMLAEWEA [E12M], the protein stability index is 1.66.
On to ISEYEKSLQFDYKCLSIMLAEWEA [E12Y], for which the protein stability index is 1.33.
As to ISEYEKSLQFDTKCLSIMLAEWEA [E12T], the protein stability index is 1.67.
Under ISEYEKSLQFDAKCLSIMLAEWEA [E12A] stands 2.34; under ISEYEKSLQFDGKCLSIMLAEWEA [E12G], 2.27.
For ISEYEKSLQFDDKCLSIMLAEWEA [E12D], the protein stability index was found to be 2.17.
As to ISEYEKSLQFDEKCLSIMLVEWEA [A20V], the protein stability index stood at 1.8.
The result for ISEYEKSLQFDEKCLSIMLFEWEA [A20F] reads 1.54; that for ISEYEKSLQFDEKCLSIMLIEWEA [A20I], 1.48; that for ISEYEKSLQFDEKCLSIMLSEWEA [A20S], 1.88.
Turning to ISEYEKSLQFDEKCLSIMLQEWEA [A20Q], the protein stability index amounted to 2.19.
The result for ISEYEKSLQFDEKCLSIMLYEWEA [A20Y] reads 2.08; that for ISEYEKSLQFDEKCLSIMLLEWEA [A20L], 1.4.
The result for ISEYEKSLQFDEKCLSIMLPEWEA [A20P] reads 3.02.
Under ISEYEKSLQFDEKCLSIMLKEWEA [A20K] stands 1.64; under ISEYEKSLQFDEKCLSIMLGEWEA [A20G], 2.01; under ISEYEKSLQFDEKCLSIMLHEWEA [A20H], 1.64.
Take ISEYEKSLQFDEKTLSIMLAEWEA [C14T]: the protein stability index amounted to 1.71.
Under ISEYEKSLQFDEKVLSIMLAEWEA [C14V] stands 1.75; under ISEYEKSLQFDEKMLSIMLAEWEA [C14M], 1.58.
In the case of ISEYEKSLQFDEKGLSIMLAEWEA [C14G], the protein stability index was found to be 2.27.
Under ISEYEKSLQFDEKWLSIMLAEWEA [C14W] stands 1.35; under ISEYEKSLQFDEKKLSIMLAEWEA [C14K], 1.59; under ISEYEKSLQFDEKYLSIMLAEWEA [C14Y], 1.16.
Regarding ISEYEKSLQFDEKHLSIMLAEWEA [C14H], the protein stability index came out at 2.81.
The result for ISEYEKSLQFDEKPLSIMLAEWEA [C14P] reads 3.42.
In the case of ISEYEKSLQFDEKILSIMLAEWEA [C14I], the protein stability index turned out to be 2.16.
Under ISEYEGSLQFDEKCLSIMLAEWEA [K6G] stands 1.15; under ISEYEDSLQFDEKCLSIMLAEWEA [K6D], 2.07; under ISEYETSLQFDEKCLSIMLAEWEA [K6T], 1.92.
Under ISEYECSLQFDEKCLSIMLAEWEA [K6C] stands 2.67; under ISEYENSLQFDEKCLSIMLAEWEA [K6N], 1.91; under ISEYEVSLQFDEKCLSIMLAEWEA [K6V], 1.16.
Regarding ISEYEESLQFDEKCLSIMLAEWEA [K6E], the protein stability index was found to be 1.78.
